Laboratory results: patent publication US20150225457A1

Target: mouse CEACAM1 on SEB-responsive T cells (mouse), P31809
Assay: cell-based or functional assay

TIM3 up-regulation on SEB-responsive T-cells after in vitro re-stimulation (% Mean Fluorescence): 29
B1: mouse CEACAM1 N-domain Fc fusion protein, P31809 35-142 (Fc fusion, UniProt P31809 35-142, looked up, not shown: a dimerising Fc or GST)
chain: EVTIEAVPPQVAEDNNVLLLVHNLPLALGAFAWYKGNTTAIDKEIARFVPNSNMNFTGQAYSGREIIYSNGSLLFQMITMKDMGVYTLDMTDENYRRTQATVRFHVHP
